Test results reported in US20250064988A1.

Experiments:
[1] = biological target: Glycoprotein IIb (GPIIb, also known as antigen CD41) (UniProt P08514); test: flow cytometry, percent of FDPDs stained; batch 1
[2] = biological target: Glycoprotein IIb (GPIIb, also known as antigen CD41) (UniProt P08514); test: flow cytometry, percent of FDPDs stained; batch 6
[3] = biological target: Glycoprotein IIb (GPIIb, also known as antigen CD41) (UniProt P08514); test: flow cytometry, percent of FDPDs stained; batch 2
[4] = biological target: Glycoprotein IIb (GPIIb, also known as antigen CD41) (UniProt P08514); test: flow cytometry, percent of FDPDs stained; batch 3
[5] = biological target: Glycoprotein IIb (GPIIb, also known as antigen CD41) (UniProt P08514); test: flow cytometry, percent of FDPDs stained; batch 4
[6] = biological target: Glycoprotein IIb (GPIIb, also known as antigen CD41) (UniProt P08514); test: flow cytometry, percent of FDPDs stained; batch 7
[7] = biological target: Glycoprotein IIb (GPIIb, also known as antigen CD41) (UniProt P08514); test: flow cytometry, percent of FDPDs stained; batch 5
[8] = biological target: Glycoprotein IIb (GPIIb, also known as antigen CD41) (UniProt P08514); test: flow cytometry, percent of FDPDs stained; mean of 7 batches
[9] = biological target: P-selectin (also called CD62P) (human) (UniProt P16109); test: flow cytometry, percent of CD41-positive FDPDs stained; batch 4
UniProt P16109, sequence (P16109 42-830): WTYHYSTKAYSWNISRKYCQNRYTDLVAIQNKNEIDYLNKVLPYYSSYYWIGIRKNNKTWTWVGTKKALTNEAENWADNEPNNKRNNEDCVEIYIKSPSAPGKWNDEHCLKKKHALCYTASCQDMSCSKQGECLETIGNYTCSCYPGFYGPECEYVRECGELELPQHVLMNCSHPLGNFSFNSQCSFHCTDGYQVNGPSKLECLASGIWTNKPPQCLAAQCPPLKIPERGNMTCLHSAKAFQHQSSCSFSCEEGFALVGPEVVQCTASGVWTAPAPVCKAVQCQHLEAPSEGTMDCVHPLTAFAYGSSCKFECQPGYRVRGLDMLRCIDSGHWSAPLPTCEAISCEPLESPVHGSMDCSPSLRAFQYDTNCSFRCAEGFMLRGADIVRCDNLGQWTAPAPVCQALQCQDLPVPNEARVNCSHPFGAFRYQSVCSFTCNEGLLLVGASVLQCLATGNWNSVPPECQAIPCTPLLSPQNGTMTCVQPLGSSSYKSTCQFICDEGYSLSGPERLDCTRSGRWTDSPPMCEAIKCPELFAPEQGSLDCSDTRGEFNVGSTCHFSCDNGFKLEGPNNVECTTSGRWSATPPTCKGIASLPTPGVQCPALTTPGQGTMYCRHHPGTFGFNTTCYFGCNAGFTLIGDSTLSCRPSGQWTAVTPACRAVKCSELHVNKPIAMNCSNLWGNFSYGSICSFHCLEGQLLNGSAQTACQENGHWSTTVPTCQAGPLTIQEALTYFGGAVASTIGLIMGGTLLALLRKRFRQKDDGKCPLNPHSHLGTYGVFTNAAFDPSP

[10] = biological target: P-selectin (also called CD62P) (human) (UniProt P16109); test: flow cytometry, percent of CD41-positive FDPDs stained; batch 5
[11] = biological target: P-selectin (also called CD62P) (human) (UniProt P16109); test: flow cytometry, percent of CD41-positive FDPDs stained; mean of 7 batches
[12] = biological target: P-selectin (also called CD62P) (human) (UniProt P16109); test: flow cytometry, percent of CD41-positive FDPDs stained; batch 1
[13] = biological target: P-selectin (also called CD62P) (human) (UniProt P16109); test: flow cytometry, percent of CD41-positive FDPDs stained; batch 3
[14] = biological target: P-selectin (also called CD62P) (human) (UniProt P16109); test: flow cytometry, percent of CD41-positive FDPDs stained; batch 7
[15] = biological target: P-selectin (also called CD62P) (human) (UniProt P16109); test: flow cytometry, percent of CD41-positive FDPDs stained; batch 2
[16] = biological target: P-selectin (also called CD62P) (human) (UniProt P16109); test: flow cytometry, percent of CD41-positive FDPDs stained; batch 6
[17] = biological target: P-selectin (also called CD62P) (human) (UniProt P16109); test: flow cytometry, human apheresis platelets after 20 µM TRAP-6
[18] = biological target: P-selectin (also called CD62P) (human) (UniProt P16109); test: flow cytometry, human apheresis platelets without TRAP-6
Thrombospondin (TSP1) [19] = biological target: Thrombospondin (TSP1) (UniProt P07996); test: flow cytometry, resting fresh washed platelets
UniProt P07996, sequence (P07996 19-1170 limits assumed): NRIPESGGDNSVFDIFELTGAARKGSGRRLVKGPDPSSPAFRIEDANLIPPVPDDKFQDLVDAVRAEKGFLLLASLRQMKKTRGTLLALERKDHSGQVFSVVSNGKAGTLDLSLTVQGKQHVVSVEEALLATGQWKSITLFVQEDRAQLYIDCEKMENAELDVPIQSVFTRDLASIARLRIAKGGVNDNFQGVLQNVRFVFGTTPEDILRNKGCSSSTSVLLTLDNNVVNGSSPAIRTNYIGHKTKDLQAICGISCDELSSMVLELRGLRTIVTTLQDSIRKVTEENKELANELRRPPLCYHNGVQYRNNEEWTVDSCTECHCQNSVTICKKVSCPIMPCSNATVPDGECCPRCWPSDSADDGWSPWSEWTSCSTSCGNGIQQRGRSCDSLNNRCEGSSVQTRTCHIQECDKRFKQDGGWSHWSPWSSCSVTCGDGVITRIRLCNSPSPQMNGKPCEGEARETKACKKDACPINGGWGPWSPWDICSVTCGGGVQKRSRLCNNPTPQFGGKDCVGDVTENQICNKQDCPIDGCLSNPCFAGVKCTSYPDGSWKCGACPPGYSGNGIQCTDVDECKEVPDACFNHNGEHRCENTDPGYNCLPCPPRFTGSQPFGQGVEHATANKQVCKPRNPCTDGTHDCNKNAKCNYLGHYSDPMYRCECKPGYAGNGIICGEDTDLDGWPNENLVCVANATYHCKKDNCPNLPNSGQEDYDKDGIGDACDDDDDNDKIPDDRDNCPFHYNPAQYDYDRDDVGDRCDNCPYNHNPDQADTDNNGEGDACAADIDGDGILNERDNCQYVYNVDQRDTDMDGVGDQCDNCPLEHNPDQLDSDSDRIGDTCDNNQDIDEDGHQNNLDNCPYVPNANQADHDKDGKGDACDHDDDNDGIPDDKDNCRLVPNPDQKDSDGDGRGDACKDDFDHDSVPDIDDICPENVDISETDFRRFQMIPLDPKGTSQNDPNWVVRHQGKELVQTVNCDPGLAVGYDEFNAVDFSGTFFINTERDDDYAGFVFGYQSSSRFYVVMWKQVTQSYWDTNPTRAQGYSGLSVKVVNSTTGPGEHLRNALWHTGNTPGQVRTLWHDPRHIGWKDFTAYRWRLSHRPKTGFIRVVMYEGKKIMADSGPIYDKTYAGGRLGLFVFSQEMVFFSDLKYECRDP

Thrombospondin (TSP1) [20] = biological target: Thrombospondin (TSP1) (UniProt P07996); test: flow cytometry, rehydrated baked FDPDs, average of lots
Thrombospondin (TSP1) [21] = biological target: Thrombospondin (TSP1) (UniProt P07996); test: flow cytometry, fresh washed platelets activated with collagen and thrombin
[22] = biological target: Von Willebrand factor (vWF) (UniProt P04275); test: flow cytometry, resting fresh washed platelets
UniProt P04275, sequence (P04275 764-2813 limits assumed): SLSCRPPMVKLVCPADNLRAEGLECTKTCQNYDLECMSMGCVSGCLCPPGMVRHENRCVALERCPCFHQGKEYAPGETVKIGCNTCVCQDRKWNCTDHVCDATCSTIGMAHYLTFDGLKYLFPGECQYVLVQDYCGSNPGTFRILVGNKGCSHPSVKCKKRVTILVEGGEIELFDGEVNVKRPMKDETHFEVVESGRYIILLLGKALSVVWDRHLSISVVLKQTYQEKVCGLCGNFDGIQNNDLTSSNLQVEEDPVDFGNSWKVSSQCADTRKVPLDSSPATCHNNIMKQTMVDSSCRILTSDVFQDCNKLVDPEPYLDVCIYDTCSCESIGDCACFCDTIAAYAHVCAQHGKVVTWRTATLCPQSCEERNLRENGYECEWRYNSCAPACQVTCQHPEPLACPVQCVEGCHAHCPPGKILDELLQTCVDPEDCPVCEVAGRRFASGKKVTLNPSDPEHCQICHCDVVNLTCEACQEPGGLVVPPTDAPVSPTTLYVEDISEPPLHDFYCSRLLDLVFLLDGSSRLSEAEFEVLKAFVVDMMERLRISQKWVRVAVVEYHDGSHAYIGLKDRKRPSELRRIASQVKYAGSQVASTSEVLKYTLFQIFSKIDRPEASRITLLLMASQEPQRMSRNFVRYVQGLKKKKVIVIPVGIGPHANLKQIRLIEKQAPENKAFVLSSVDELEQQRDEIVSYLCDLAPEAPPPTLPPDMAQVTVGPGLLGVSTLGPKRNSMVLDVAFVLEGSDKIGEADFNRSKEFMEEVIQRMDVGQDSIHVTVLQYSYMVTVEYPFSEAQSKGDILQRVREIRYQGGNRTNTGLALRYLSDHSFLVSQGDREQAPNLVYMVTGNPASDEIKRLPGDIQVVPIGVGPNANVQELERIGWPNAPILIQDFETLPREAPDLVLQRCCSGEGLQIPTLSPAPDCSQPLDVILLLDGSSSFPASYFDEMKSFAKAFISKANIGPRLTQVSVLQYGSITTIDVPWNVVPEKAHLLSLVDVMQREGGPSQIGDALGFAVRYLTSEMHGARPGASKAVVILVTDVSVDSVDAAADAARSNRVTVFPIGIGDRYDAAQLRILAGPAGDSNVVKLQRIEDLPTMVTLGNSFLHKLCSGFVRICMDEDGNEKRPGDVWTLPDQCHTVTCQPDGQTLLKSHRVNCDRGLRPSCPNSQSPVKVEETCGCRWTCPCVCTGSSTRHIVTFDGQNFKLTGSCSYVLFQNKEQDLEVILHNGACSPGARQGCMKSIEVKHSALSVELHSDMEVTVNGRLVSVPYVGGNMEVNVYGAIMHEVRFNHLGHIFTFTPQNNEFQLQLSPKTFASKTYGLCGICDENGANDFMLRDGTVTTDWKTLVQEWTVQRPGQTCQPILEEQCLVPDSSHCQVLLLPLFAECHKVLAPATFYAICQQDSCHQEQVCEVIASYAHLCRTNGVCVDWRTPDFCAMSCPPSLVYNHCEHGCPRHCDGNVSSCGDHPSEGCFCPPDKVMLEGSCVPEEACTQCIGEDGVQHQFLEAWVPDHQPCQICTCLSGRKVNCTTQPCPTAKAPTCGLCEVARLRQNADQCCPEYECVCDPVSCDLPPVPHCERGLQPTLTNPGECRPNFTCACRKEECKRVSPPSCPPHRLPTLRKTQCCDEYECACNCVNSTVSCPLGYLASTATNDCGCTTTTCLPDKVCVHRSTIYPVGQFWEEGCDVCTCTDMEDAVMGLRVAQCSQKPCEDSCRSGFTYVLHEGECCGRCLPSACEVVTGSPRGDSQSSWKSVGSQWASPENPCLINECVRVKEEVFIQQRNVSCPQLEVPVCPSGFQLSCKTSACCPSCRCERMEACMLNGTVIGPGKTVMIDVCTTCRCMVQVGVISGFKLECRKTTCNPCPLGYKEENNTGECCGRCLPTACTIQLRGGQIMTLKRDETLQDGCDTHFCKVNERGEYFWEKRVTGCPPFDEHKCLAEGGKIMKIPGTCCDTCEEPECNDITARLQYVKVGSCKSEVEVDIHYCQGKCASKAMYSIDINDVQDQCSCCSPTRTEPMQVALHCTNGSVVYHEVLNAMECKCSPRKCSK

[23] = biological target: Von Willebrand factor (vWF) (UniProt P04275); test: flow cytometry, rehydrated baked FDPDs, average of lots
[24] = biological target: Von Willebrand factor (vWF) (UniProt P04275); test: flow cytometry, fresh washed platelets activated with collagen and thrombin

UniProt P08514, sequence (P08514 32-1039 limits assumed): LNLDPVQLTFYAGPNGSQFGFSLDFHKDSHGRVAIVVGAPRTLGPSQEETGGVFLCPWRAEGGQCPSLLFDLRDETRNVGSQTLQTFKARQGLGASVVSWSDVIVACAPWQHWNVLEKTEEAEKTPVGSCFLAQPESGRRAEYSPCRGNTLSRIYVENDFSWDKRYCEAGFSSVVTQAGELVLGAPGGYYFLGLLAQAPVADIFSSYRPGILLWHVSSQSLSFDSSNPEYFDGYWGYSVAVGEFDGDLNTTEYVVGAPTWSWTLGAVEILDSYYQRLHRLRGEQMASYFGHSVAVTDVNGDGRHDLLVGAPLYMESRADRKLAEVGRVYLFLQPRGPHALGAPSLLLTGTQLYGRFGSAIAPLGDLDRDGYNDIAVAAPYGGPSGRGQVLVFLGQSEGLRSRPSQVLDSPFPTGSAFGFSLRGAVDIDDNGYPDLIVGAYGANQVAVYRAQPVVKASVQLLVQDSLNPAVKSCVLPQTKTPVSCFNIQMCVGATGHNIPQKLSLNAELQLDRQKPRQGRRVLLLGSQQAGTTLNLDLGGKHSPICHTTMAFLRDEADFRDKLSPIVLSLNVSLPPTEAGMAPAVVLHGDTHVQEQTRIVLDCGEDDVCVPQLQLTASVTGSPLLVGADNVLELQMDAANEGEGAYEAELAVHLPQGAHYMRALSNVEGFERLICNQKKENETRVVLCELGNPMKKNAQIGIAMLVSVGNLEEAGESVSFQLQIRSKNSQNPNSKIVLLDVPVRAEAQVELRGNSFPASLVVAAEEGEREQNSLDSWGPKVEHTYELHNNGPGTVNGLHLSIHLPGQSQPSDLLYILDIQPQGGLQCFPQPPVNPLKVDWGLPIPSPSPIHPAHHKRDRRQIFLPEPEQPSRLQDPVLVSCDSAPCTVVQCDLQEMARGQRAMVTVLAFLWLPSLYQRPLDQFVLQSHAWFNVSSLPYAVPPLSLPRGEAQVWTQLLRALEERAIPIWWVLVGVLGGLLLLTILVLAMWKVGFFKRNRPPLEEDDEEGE

anti-CD41 antibody (Beckman Coulter part #IM1416U)
CD41 Positivity (%) [1]: 81.5% | CD41 Positivity (%) [2]: 84% | CD41 Positivity (%) [3]: 79.4% | CD41 Positivity (%) [4]: 85.7% | CD41 Positivity (%) [5]: 78.2% | CD41 Positivity (%) [6]: 78.5% | CD41 Positivity (%) [7]: 81.5% | CD41 Positivity (%) [8]: 81.3%

anti-CD62P antibody (BD Biosciences Cat. No. 550888)
CD62 Positivity (%) [9]: 92.4% | CD62 Positivity (%) [10]: 92.5% | CD62 Positivity (%) [11]: 91.4% | CD62 Positivity (%) [12]: 94.2% | CD62 Positivity (%) [13]: 89.8% | CD62 Positivity (%) [14]: 90.7% | CD62 Positivity (%) [15]: 93.1% | CD62 Positivity (%) [16]: 87.3%

anti-CD62P-PE antibody (BD Pharmingen Cat #550561 Lot #6322976)
MFI [17]: 127000 MFI | MFI [18]: 2350 MFI

anti-Thrombospondin-1 (TSP-1) antibody (Santa Cruz Biotech Cat #sc-59887 AF594)
MFI (Thrombospondin (TSP1) [19]): 1220 MFI | MFI (Thrombospondin (TSP1) [20]): 91400 MFI | MFI (Thrombospondin (TSP1) [21]): 3310 MFI

anti-Von Willebrand Factor antibody (Novus Biologicals Cat #NBP2-54379PE)
MFI [22]: 4770 MFI | MFI [23]: 14000 MFI | MFI [24]: 19700 MFI
